Experiment [1] deals with T1, CRIP1 (Homo sapiens, UniProt P50238).
T1 construct: enterokinase cleavage site and vector linker residues (N); made in house; host or cells: E. coli (pHAT10-CRIP1, IPTG induction)
T1 sequence (P50238 1-77): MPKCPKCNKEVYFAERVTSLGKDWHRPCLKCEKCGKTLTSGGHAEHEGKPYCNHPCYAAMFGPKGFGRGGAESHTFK
As to the kind of experiment: Saturation binding of FITC-labeled peptides. To be noted: ΔΔG = RT ln K d,A1M − RT ln K d,A1, from apparent dissociation constants. From the text:
We computationally redesigned A1 resulting in a peptide with a new sequence (denoted as A1M) predicted to bind to CRIP1 with higher affinity. To test this prediction, A1, B5 and A1M peptides were all synthesized and labeled with FITC for binding studies. Since the peptides encoded by the C7C phage library are at the N-terminus of the minor phage coat protein pIII followed by a short phage encoded spacer Gly-Gly-Gly-Ser, we included this 4-mer in the synthesized peptide. An additional C-terminal Lys was also included in order to enable fluorescent labeling of the peptide. […] We synthesized the cyclic form of the peptides, A1, B5 and A1M and determined their ability to bind CRIP1 using saturation binding experiments. […] To directly compare the affinity of the A1 and A1M peptides for CRIP1 protein, we performed a competitive binding assay and determined the IC50 for each of the peptides using FITC-A1M as the ligand. […]
The binding affinity of the peptides for CRIP1 protein was determined by saturation binding experiments,[55]. […] The fluorescence intensity in each well was determined on Infinite M200 Tecan Instrument (Tecan, NC) (Excitation wavelength: 494 nm, Emission wavelength: 530 nm). The apparent equilibrium dissociation constant, K d,apparent, was calculated by non-linear regression using GraphPad Prism (GraphPad Prism 4.0 Software, San Diego, CA). […]

Experiment [2] concerns the target T1, CRIP1. As to the kind of experiment: Competitive binding assay against FITC-A1M. The conditions noted are these: A1M vs A1, competing for FITC-A1M binding, from IC50. How it is done: The binding affinity of the A1 and A1M peptides for CRIP1 protein was directly compared by a competitive binding experiment,[56]. Labeled A1M peptide (FITC-A1M) was competed with increasing concentrations of either unlabeled A1M peptides or A1 peptide and the IC50 for each peptide calculated.
Ninety-six well plates were coated with 150 µl of PBS buffer containing 100 µg/ml of CRIP1 and incubated overnight at 4°C. The wells were then washed 3 times with 50 mM Tris, 150 mM NaCl, pH 7.5 (TBS) containing 0.1% Tween-20 (TBST), and then each well filled completely with blocking buffer (TBS containing 0.5% BSA), incubated at least 1 hour at 4°C, and then rapidly washed 3 times with TBST. Following washing 150 µl of binding buffer containing FITC-A1M peptides of 10 µM and appropriate dilutions of unlabeled A1 and A1M peptides (ranging from 0 to 300 µM) were added to the CRIP1 containing wells and incubated for 1 hour at 37°C with rocking. After incubation, the plates were washed three times with binding buffer. The fluorescence intensity in each well was determined on Infinite M200 Tecan Instrument (Tecan, NC) (Excitation wavelength: 494 nm, Emission wavelength: 530 nm). Ki was calculated by non-linear regression with one binding site using GraphPad Prism (GraphPad Prism 4.0 Software, San Diego, CA). […]

Experiment [3] has as its target T2, Cysteine-rich intestinal protein 1 (CRIP1), purified protein coated on plates for the peptide binding assays (human, UniProt P50238 1-77).
T2 construct: Cysteine-rich intestinal protein 1 (CRIP1), human; coding region of the cDNA, 77 amino acids; also called CRIP1 protein; source: bacteria (pHAT10-CRIP1, IPTG induced), purified (TALON CellThru resin)
T2 sequence (looked up): T1 sequence (P50238 1-77)
As to the kind of experiment: saturation binding of FITC-labelled peptide to protein-coated plates (fluorescence read-out); CRIP1 coated on 96-well plates (100 µg/ml in PBS, overnight 4°C), blocked with 0.5% BSA in TBS; FITC peptide 50 nM to 100 µM, 1 h at 37°C; non-specific binding with 1 mM unlabeled peptide; apparent Kd by non-linear regression. To be noted: both partners purified.

The target in experiment [4] is T2, Cysteine-rich intestinal protein 1 …. Briefly: saturation binding of FITC-labelled peptide to protein-coated plates (fluorescence read-out); data not shown; 'similar assays' to the saturation binding of FITC-A1M on coated CRIP1; apparent Kd. The conditions noted are these: both partners purified.

Where a SMILES comes first, the peptide text is derived from it. Bridges are numbered along the chain shown (N, C = ends). Where no end group is shown, it is not given here.

Take `CC(C)C[C@@H]1NC(=O)[C@@H](N)CSSC[C@@H](C(=O)NCC(=O)NCC(=O)NCC(=O)N[C@@H](CO)C(=O)N[C@@H](CCCCN)C(N)=O)NC(=O)CNC(=O)[C@H](CCCCN)NC(=O)CNC(=O)CNC(=O)CNC(=O)[C@H](CC(=O)O)NC1=O` [A1M] (H-CLDGGGKGCGGGSK-NH2; disulfide 1-9; N-terminus assumed): the “experimental free energy change ΔΔG” value on CRIP1 [1] is -1.6 kcal/mol. Also, the “binding affinity relative to A1 (fold better)” value on CRIP1 [2] is “approximately 27.5 times”.

B1: FITC-cyclic-A1M peptide (peptide)
peptide: H-CLDGGGKGCGGGSK-NH2
modifications: disulfide 1-9 (inferred); not fully specified (residue 14); printed as NH_2_-C-L-D-G-G-G-K-G-C-G-G-G-S-K-(FITC)-CONH_2_
notes: also called FITC-A1M; modified A1; source: synthetic peptide (Fmoc chemistry, HPLC purified, cyclised by oxidation in DMSO)
B1: in experiment [3], the Kd is 2.6 µM.

B2: FITC-cyclic-B5 peptide (peptide)
peptide: CYDPIWRTCGGGSK-NH2
modifications: disulfide 1-9 (inferred); not fully specified (residue 14); printed as C-Y-D-P-I-W-R-T-C-G-G-G-S-K-(FITC)-CONH_2_
notes: insert of phage clone B5 (C7C library) followed by the phage spacer Gly-Gly-Gly-Ser and a C-terminal Lys for labelling; also called FITC-B5; source: synthetic peptide (Fmoc chemistry, HPLC purified, cyclised by oxidation in DMSO)
As for B2, in experiment [4], the Kd was 62.5 µM.

B3: FITC-cyclic-A1 peptide (peptide)
peptide: H-CLKDNHRSCGGGSK-NH2
modifications: disulfide 1-9 (inferred); not fully specified (residue 14); printed as NH_2_-C-L-K-D-N-H-R-S-C-G-G-G-S-K-(FITC)-CONH_2_
notes: insert of phage clone A1 (C7C library) followed by the phage spacer Gly-Gly-Gly-Ser and a C-terminal Lys for labelling; also called FITC-A1; parent A1 peptide; source: synthetic peptide (Fmoc chemistry, HPLC purified, cyclised by oxidation in DMSO)
Take B3: in experiment [4], the Kd worked out at 34.4 µM.

The values are drawn from article PMC2453235, “Identification and Rational Redesign of Peptide Ligands to CRIP1, A Novel Biomarker for Cancers” (PLoS Computational Biology, 2008).
